Numbered stars: 1 amine (or outer) side, 2 acyl side, 3 side chain; on linkers, the order of the positions; unused ones are H or OH. Bridge positions count the residues as written; N and C are the ends. * marks the point of attachment. C20 diacid = O=C(O)CCCCCCCCCCCCCCCCCCC(=O)*; γGlu = O=C(O)[C@H](CCC(=O)[*:2])N[*:1]
What was measured:
rat calcitonin receptor [1] = molecular target: T1, rat calcitonin receptor (rat, UniProt P32214 25-516); assay: ratio IC50 rat calcitonin receptor / IC50 rat amylin receptor (reference)
T1 construct: whole, on cells; Membranes of transiently transfected BHK tk'ts 13 cells (Assay VIII); also called rCTR
T1 sequence (looked up): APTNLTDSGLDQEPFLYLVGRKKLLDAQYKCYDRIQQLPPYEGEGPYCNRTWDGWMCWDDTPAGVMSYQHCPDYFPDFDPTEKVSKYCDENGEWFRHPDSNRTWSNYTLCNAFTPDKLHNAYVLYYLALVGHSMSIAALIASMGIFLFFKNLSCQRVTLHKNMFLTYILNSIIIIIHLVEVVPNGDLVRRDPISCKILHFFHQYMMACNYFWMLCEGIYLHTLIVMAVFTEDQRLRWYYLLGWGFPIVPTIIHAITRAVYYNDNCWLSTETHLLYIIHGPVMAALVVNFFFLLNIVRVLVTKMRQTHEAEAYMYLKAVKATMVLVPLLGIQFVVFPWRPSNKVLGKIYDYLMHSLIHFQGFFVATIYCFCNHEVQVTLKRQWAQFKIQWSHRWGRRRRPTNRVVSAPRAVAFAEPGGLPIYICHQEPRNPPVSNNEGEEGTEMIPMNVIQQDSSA

[2] = molecular target: T2, human calcitonin receptor (human, UniProt P30988 25-474); assay: ratio IC50 human calcitonin receptor / IC50 human amylin receptor (reference)
T2 construct: whole, on cells; Membranes of a stably transfected BHK cell line (Assay VII); also called hCTR; hCT
T2 sequence (looked up): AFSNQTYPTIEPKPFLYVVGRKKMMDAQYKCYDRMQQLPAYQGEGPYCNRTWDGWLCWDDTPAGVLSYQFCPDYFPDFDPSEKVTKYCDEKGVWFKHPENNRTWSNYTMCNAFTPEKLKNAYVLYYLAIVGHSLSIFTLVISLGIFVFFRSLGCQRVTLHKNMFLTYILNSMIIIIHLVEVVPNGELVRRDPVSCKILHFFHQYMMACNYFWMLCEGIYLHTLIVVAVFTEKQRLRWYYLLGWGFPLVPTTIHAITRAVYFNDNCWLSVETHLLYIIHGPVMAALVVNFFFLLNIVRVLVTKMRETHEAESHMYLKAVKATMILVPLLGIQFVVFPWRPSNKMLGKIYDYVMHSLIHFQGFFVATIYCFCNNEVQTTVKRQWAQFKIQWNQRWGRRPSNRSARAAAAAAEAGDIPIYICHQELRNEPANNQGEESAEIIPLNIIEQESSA
Summary of the method: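 Membranes (35 ng/μL final) + SPA beads, 50 mM Hepes pH 7.4 buffer with 1 mM CaCl2, 5 mM MgCl₂, 0.1% OA, 0.02% Tween20; 120 min, 25° C, shaking; centrifuged, counted; IC₅₀ by one-site binding competition.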

rat calcitonin receptor [3] = molecular target: T1, rat calcitonin receptor; assay: SPA competition with 125I-calcitonin, membranes of BHK cells with rat calcitonin receptor (Assay VIII)
[4] = molecular target: T3, rat amylin receptor (rat calcitonin receptor + rat RAMP 3) (rat, UniProt P32214 25-516; Q9JJ73 23-147); assay: SPA competition with 125I-rat amylin, membranes of BHK cells with rat calcitonin receptor + rat RAMP3 (Assay VI)
T3 construct: whole, on cells; Membranes of transiently transfected BHK tk'ts 13 cells (Assay VI); also called rAmylin-R; rat amylin 3(a) receptor
T3 sequence (looked up) 1: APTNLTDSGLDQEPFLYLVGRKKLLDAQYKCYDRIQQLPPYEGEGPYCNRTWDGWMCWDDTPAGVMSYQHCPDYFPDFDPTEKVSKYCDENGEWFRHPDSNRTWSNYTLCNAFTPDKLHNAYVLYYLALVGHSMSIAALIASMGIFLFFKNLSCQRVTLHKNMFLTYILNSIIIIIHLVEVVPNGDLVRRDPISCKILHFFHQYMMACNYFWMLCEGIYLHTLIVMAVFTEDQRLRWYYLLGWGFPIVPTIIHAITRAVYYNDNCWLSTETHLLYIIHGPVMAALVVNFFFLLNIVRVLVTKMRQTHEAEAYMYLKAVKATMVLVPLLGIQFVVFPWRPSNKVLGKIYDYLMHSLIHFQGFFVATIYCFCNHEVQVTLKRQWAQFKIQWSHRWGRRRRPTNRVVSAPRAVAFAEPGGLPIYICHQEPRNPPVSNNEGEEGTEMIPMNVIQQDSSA
T3 sequence (looked up) 2: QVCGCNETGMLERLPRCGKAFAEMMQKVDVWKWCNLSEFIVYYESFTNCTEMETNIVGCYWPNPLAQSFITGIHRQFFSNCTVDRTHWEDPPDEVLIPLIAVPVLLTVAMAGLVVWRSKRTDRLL

Ratio rCT/rAmylin binding (rat calcitonin receptor [1]): 79.8
Ratio hCT/hAmylin binding [2]: 100
IC50 (rat calcitonin receptor [3]): 216 nM
IC50 [4]: 2.7 nM
B1: N{-1}-[(4S)-4-carboxy-4-(19-carboxynonadecanoylamino)butanoyl]-Gly[Arg1,His14,Arg17,Pro21,Pro27]-h-amylin (peptide)
peptide: {C20 diacid-γGlu}-GRCNTATCATQRLAHFLRHSSPNFGAIPSSTNVGSNTY-NH2
modifications: disulfide 3-8
SMILES: CC[C@H](C)[C@H](NC(=O)[C@H](C)NC(=O)CNC(=O)[C@H](Cc1ccccc1)NC(=O)[C@H](CC(N)=O)NC(=O)[C@@H]1CCCN1C(=O)[C@H](CO)NC(=O)[C@H](CO)NC(=O)[C@H](Cc1c[nH]cn1)NC(=O)[C@H](CCCNC(=N)N)NC(=O)[C@H](CC(C)C)NC(=O)[C@H](Cc1ccccc1)NC(=O)[C@H](Cc1c[nH]cn1)NC(=O)[C@H](C)NC(=O)[C@H](CC(C)C)NC(=O)[C@H](CCCNC(=N)N)NC(=O)[C@H](CCC(N)=O)NC(=O)[C@@H](NC(=O)[C@H](C)NC(=O)[C@@H]1CSSC[C@H](NC(=O)[C@H](CCCNC(=N)N)NC(=O)CNC(=O)CC[C@H](NC(=O)CCCCCCCCCCCCCCCCCCC(=O)O)C(=O)O)C(=O)N[C@@H](CC(N)=O)C(=O)N[C@@H]([C@@H](C)O)C(=O)N[C@@H](C)C(=O)N[C@@H]([C@@H](C)O)C(=O)N1)[C@@H](C)O)C(=O)N1CCC[C@H]1C(=O)N[C@@H](CO)C(=O)N[C@@H](CO)C(=O)N[C@H](C(=O)N[C@@H](CC(N)=O)C(=O)N[C@H](C(=O)NCC(=O)N[C@@H](CO)C(=O)N[C@@H](CC(N)=O)C(=O)N[C@H](C(=O)N[C@@H](Cc1ccc(O)cc1)C(N)=O)[C@@H](C)O)C(C)C)[C@@H](C)O
notes: also called compound 99

Source: US20140087995A1 (published 2014)
